Data set [1] deals with the molecule itself. Description: SEC; analytical SEC, 10 µM enzyme loaded on Superdex 200 Increase 10/300, 50 mM HEPES pH 8.0, 150 mM NaCl, 20 µM PLP, samples incubated at 25 °C for 20 min; oligomeric state from the elution volume; the limits of K_Dtet-dim are of the step tetramer to dimers.
Data set [2] concerns the molecule itself. The description is as above. The source holds these as a separate data set.

B1: human ornithine aminotransferase R154L pathogenic variant (enzyme)
chain: TSVATKKTVQGPPTSDDIFEREYKYGAHNYHPLPVALERGKGIYLWDVEGRKYFDFLSSYSAVNQGHCHPKIVNALKSQVDKLTLTSRAFYNNVLGEYEEYITKLFNYHKVLPMNTGVEAGETACKLALKWGYTVKGIQKYKAKIVFAAGNFWGRTLSAISSSTDPTSYDGFGPFMPGFDIIPYNDLPALERALQDPNVAAFMVEPIQGEAGVVVPDPGYLMGVRELCTRHQVLFIADEIQTGLARTGRWLAVDYENVRPDIVLLGKALSGGLYPVSAVLCDDDIMLTIKPGEHGSTYGGNPLGCRVAIAALEVLEEENLAENADKLGIILRNELMKLPSDVVTAVRGKGLLNAIVIKETKDWDAWKVCLRLRDNGLLAKPTHGDIIRFAPPLVIKEDELRESIEIINKTILSF
modifications: PLP on Lys292 (internal aldimine)
Turning to B1, in data set [1], the “stoichiometry N” value came to 2. Besides, the Kd in data set [2] was more than 10 µM.

Source of the values: PMC9967328 (International Journal of Molecular Sciences, 2023).
